The text below walks through data of PMC11787825.

Numbering of substitutions follows the chain as printed. Read-outs that look alike come from different tables or passages of the source.

What all share (assay): cryo-EM structure
The target of data set [1] is T1, HSV-1 Pol (PolΔN42);UL42 (UL42ΔC340) (Herpes simplex virus 1 (strain …, UniProt H9E937;H9E949 43-1235;2-340, |)).
Data set [2] concerns the target T1, HSV-1 Pol (PolΔN42);UL42 (UL42ΔC340). This is another data set of the same source.
Data set [3] has the same target. The source holds these as a separate data set.

B1: PT1 (dsDNA)
DNA 1: GATTACGAATTCGAGCTCGGTACCCGGGGATC
DNA 2: CACACACACACACACACAGATCCCCGGGTACCGAGCTCGAATTCGTAATC
modifications: primer 3'-terminal dideoxycytidine (ddC)
With B1, in data set [1], the binding result was “binds”.

B2: PT3 (dsDNA)
DNA 1: GATTACGAATTCGAGCTCGGTACCCGGGGATCG
DNA 2: B1 DNA 2
modifications: phosphorothioate bonds at primer ends (after nt 1 and before the 3'-terminal G)
Consider B2, for which, in data set [2], the binding result was “binds”.

B3: PT2 (dsDNA)
DNA 1: B1 DNA 1
DNA 2: B1 DNA 2 with A18C
modifications: primer 3'-terminal dideoxycytidine (ddC)
As for B3, in data set [3], the binding result was “binds”.
